For one substance, stoichiometry N results are on record in PMC7828300.

The target in the experiment is AAV12 capsid viral protein (VP) (Adeno-associated virus 12). In words: cryo-EM structure.

Turning to “AAV12 capsid viral protein (VP) (natural protein)”, the stoichiometry N (as a rule, a count of units in the complex or per binding partner) amounted to 60.
